# Results from the DeepSol protein solubility set.
# Test: soluble on expression in E. coli; label from the status in PepcDB or PDB records
row,Sequence,soluble on expression in E. coli
1,MIITLFVMVSGNKVKYEGSGKSGLWMSNLEKSDKTSIGPNYFLNLYWQGSKKEEKWTVVERITLYVDGEKYQDDNVDEYDLSEYTGDEMPGGGRMEDHISTFDYMPEDEVIGHDVLVKVEWRTGQKKQTEAIKLHKKPWYKKLEHHHHHH,not soluble
2,MIKIEINGIDEIIAKLNLIANKTENKTDLMRNIAGTMESAVQTNFEVGGRPKWLGIKHRKGVPLVDSENLMDSITSAYDNDTAFVGTNEEYAAIHQFGGMAGRGCKVKIEARPFLTLTEQDKSDILEEITDYWQRLLQ,not soluble
3,MIKIYNGDKLTRQPFFIKLINYLQIHDDVTLRQIKRNFADTEHLERSIEDYVQAGYVLRENKHYYNAFELLENLDGLTLDSQIFVDDQSSIYQDLLALTFETYLSNQTNAALIIEKTDISRDALTLSNYFFKLNENFPLSRKQKPLYHLLGDVNPNYALKYMTTFLLKFWGKDVVKQKRPDIFVQALVLLGYLEQVGKQSYCLKMTFDKEKLIFAS,not soluble
4,MIKLSEKGVFLASNNEIIAEEHFTGEIKKEEAKKGTIAWSILSSHNTSGNMDKLKIKFDSLASHDITFVGIVQTAKASGMERFPLPYVLTNCHNSLCAVGGTINGDDHVFGLSAAQRYGGIFVPPHIAVIHQYMREMMAGGGKMILGSDSHTRYGALGTMAVGEGGGELVKQLLNDTWDIDYPGVVAVHLTGKPAPYVGPQDVALAIIGAVFKNGYVKNKVMEFVGPGVSALSTDFRNSVDVMTTETTCLSSVWQTDEEVHNWLALHGRGQDYCQLNPQPMAYYDGCISVDLSAIKPMIALPFHPSNVYEIDTLNQNLTDILREIEIESERVAHGKAKLSLLDKVENGRLKVQQGIIAGCSGGNYENVIAAANALRGQSCGNDTFSLAVYPSSQPVFMDLAKKGVVADLIGAGAIIRTAFCGPCFGAGDTPINNGLSIRHTTRNFPNREGSKPANGQMSAVALMDARSIAATAANGGYLTSASELDCWDNVPEYAFDVTPYKNRVYQGFVKGATQQPLIYGPNIKDWPELGALTDNIVLKVCSKILDEVTTTDELIPSGETSSYRSNPIGLAEFTLSRRDPGYVSRSKATAELENQRLAGNVSELTEVFARIKQIAGQEHIDPLQTEIGSMVYAVKPGDGSAREQAASCQRVIGGLANIAEEYATKRYRSNVINWGMLPLQMAEVPTFEVGDYIYIPGIKAALDNPGTTFKGYVIHEDAPVTEITLYMESLTAEEREIIKAGSLINFNKNRQM,soluble
5,MIKLSSITAHILDIWHRRNSRSYIAHLRSLGIRIGDGCIFRDPLTTRIDVSRPALVSIGSNVDMNTYFQILTHDWASFVFRNKYHDFVNSSGRVEIGSNIYIGTNVIVLRGVTIGDNCVIGAGSVVTHDIPANSVAVGAPCRVVCSLEHHHHHH,soluble
6,MIKRNLLVIGLAVMLSACGFQLRGTGATELSVKEMDVSARNAYGPTVLQLREVLERSGVNVHAGAPYRLVLTNEQERERSATYNSGNRTAEYELTTKLDYSILGLNNLELMSDKLEVRKVYVRDGSNITGSEQEAKRAREEMRRDLVNAMVVRLQMLSPPQLDELQRKADERAQAEAAALEAARRQQAETPQQSPLEVPGN,not soluble
7,MIKRNLLVMGLAVLLSACGFQLRGTGTQELSIKELDLSARDAYGTTIKMLKQQLESSGVRVHAGAPYKLVLLSEENSQRTLSYTGGGNSAEYEIGTTLRYEILTHDNLHLLDDKLEVQKVFLHDGNNITGSDQESSETRKEMRRDLIQRMLIRLQLLTPEQLAQLQATAEAKAKAEADALEAARKAEAETPQQSPMELPNQLEHHHHHH,soluble
8,MILFPQNEDTVMSEMVAFRQGTSMPSRETILHYVVETVNQITELEPALHLLPWSGVNSAIYEQRFAQCYDEGLCAAQTSAPNVPQGILPSTDWAQGIGLLCFAAGYMSAGERPLTHNQLCDFVKQAAVGLSPIEGEAASGFSTVRSIALPVFRRLQRDGHASRVLLLQTLLHLVAWKSASQYARQQAQRLLWMGGILGEGGEHSLLVLDKALREEAVGEKSLPALLIFTSFLAHFPAGPVFID,not soluble
9,MILKALPNESMPREKLLQRGPQALTDAELLAIFLRTGTQGMNVIELADFLIQDFGSLRQLFSASEQEFCQHKGLGQAKYVQLQAVLEMTQRYLAETLKRGDALTSPEQTKLYLSSILRDRQREAFYILFLDNQHRVIKDEILFEGTLDAASVYPREVVKRALHHNAAALILAHNHPSGVAEPSQADRRITRRLIDALALVDIRILDHFVIGDGESVSFAERGWI,not soluble
10,MIMFNYQQTSQSCVKCGKCIPSCTIYNIHPDEVTSPRGFIDLLGAYQRGELELDKNAKDIFEKCFLCTNCTYVCPNLLPTDQVIENVRAEIAQKFGIAWFKRAYFFLLRNRWLEHHHHHH,soluble
11,MIMGLENLKPAKGSVKKIKRVGRGQGSGMGKTATRGGKGQTARTGYKAKRGFEGGQQPLQRRLPKIGFRTKDSHIYSINVEKNEAIKNLEEITFSSLRALHHFPLYIEGVKLIGKDAKNLASKIKDERIKTSGQKLEHHHHHH,soluble
12,MIMQEKIKEIASRVRELRELSEISVEKMAEYLQVSKEIYEKYENGTEDIPASILFEIAHRLQVDMATLLTGEEPRMNVFTVTRSGKGVSVERREQYRYQNLAEKFIHKKAEFFIVTVDPKPQGTKPDTNSHPGQEFNYVLEGSLKVYIHHNEIILNEGDSIYFDSNYQHAMEAMNGKTAKFLAVIM,not soluble
13,MINSKVKPQAVVADAHEDTIRSLYMESLHLVERLHRRLLDVIKDEFDRQGRDDVNAVQALLLFNIGNSELTAGELRSRGYYLGSNVSYNVKKLVDLGLINHQRSRVDRRSVRISLTEEGQAIAETVARLYERHVGSIEKVGGIGTGEFSEMNKLLQRLDRFWNDSIAYRL,not soluble
14,MIPEPDILVVGGGLGGVAAALAACRAGRSVVLTEETDWIGGQLTSQAVPPDEHPWVEQFGTTATYRRLREGIRQYYRQWYPLRAEAAALTDLNPGAGRVSKLCHEPRVALAVLEGMLAPHRAAGRLTVLTEHRPVAAETDNDVVRAVTLEDLRDGTRRTVPARYVLDATETGELLHLAGVEHVNGAESRAEFDEPHAPDRAQPGNQQGITVCFALSHHEGEDHTIDRPADYDFWRDYKPDFWPGPLLGFEAPDPRTLEPVPRTFEPNPDLDPLAVSADQSADAGDKELWGFRRILARKLHTDGAFDSDITLVNWPLNDYWLKPYIGQEAEALREARQLSLSVLYWLQTEAPRTDGGTGFPGLRPRPDVTGTADGLAKAAYVRESRRIKAVTTVTEHDVSIDLLGPYGRTRHRDSVGVGNYRIDLHPSTGGDGYVDIGSVPFEIPLGALVPRRVRNLLPAGKNLGTTHITNGCYRLHPVEWNVGEVAGALAAHCLAEDVEPHQVQAEDKRFEEFARVLDHDGVQRHWPDVRGYLEHHHHHH,not soluble
15,MIPKSTGYLADLNIHWKNYIQYLHKIEVAPKTKLQLLHDVANRIFIVESGSVRMGFEKDGKDITLQFFFEDELVASVESLFNQTPSKYFIETIEHSTIYYLTKEMLEVMALKLPEMANITQDILMSRLIYYSNHLHSYISETPEQRFNKLIETRPYIFMRVSQRHIASYLGITNVSLSRIKARKSVVYDQQPATVSVAEADNEEYLKS,not soluble
16,MIPLLGIISLSLNISGPKYRLEMGLGGKVAVDSTFSNEGVQKATEPNGTKVTYYYGGESKGFIEFSSDWKLKINEKCDINFGPRIKLLNISHIAKNIFFFLGITAGAGFEFNYNIRENVKFYTGIDGLIGMGTFMNLNNSSSKDTESKKISVIYDFIPESNVTVGTKINDKYNVGLFVDILQGYFGLKAGYTF,not soluble
17,MIQARSRRPLSCSLRSSSQNPIATTFLTGGKMDRIVRQILVKLLGGERSVYELIYYQDASLREFFELLNSLRDEGLIEVESGKVRITEKGREVAEKERLKFCGDVECECCEGTGLSINPYFKEILQKYSEIAKDRPETIEVYDQGFISLEGVIRRVEFVYDRGDLNGRIFVVGDDDLFGIAASLTGMPEKVAVVDIDERLINFINRVAEEYSLNVEAFVYDVQQAFPDELKRKFDVFVTDPVETIPGLKLFLSRGVSTLKGVGGAGYFGITTLEASRRKWYEIQRMIHDMGFIITDLRRRFNVYPEDEKNFFRFQEKLPIVRHLQAKVDFNWYNSTLFRIEAVKEPKPIVEGEMIIDEKVYKDDESWATPY,not soluble
18,MIQFKNISKHYQLKGQTIHALDQINLDIPAGSIFGIIGYSGAGKSTLIRLINLLERPTHGQIIINQKDFTALNAQSLRQERANIGMIFQHFNLLQTKTVAANIEMPLKLLGYSKIEREKRLMELLDFIDLTHKKDAFPDELSGGQKQRVGIARALANHPKILLCDEATSALDPQTTKSVLALLKKINKEQGITIVMVTHEMDVIESICDHVAVMESGHVIETGPTVEIFSNPQHPTTKTFIQTVLQQHLPVNILSKLEHQHHHSIYRLQFLGKSAQEPVIQSMIKQFDISLNILFANMTEIDGTVIGQMFVQLLGDDTLIQQAIEFLERHGVSVNQSGEQV,not soluble
19,MIQKGLEGVKICESSICYLDGINGRLYYRGIPVEELAEKSTFEETAYFLWYGKLPTKSELEEFKRKMADYRELPAEALGILYHLPKNLHYIDVLKIFLSIHGSMDGNDEDLREKAIRVASVFPTILAYYYRYSKGKELIRPRKDLSHVENFYYMMFGERNEKIRLLESAFILLMEQDINASTFAALVIASTLSDLYSCIVGALGALKGPLHGGASEKVPPMLEEIGSEDRVEEFVQKCLKEKRKIMGFGHRVYKTYDPRAVFLKRVLQEHFPDSKLFRIASKLEEYIVSNKIKNIYPNVDLYSSVLFEELGFPRNMFTALFATARVVGWTAHVIEYVSDNKLIRPTSEYVGPMDVEYIPIERRDENG,soluble
20,MIQKINILDSSQSGVKNGADSEAVLAALIEHLELINPSGRLSQNTRSAMLQLREEEWSEFFFWLLNSLECLDYVIINLTPESKKTLMSEHRNNIQVAIDALYSQRRRKSPGDESETLTRRNDAIFGNHVWQTFAQYFPPGLEKPSV,not soluble
21,MIRELFEKEGFTLDEEQERKFSIYLQELLRWNKVHNLTSIKKPEEIVRRHFIDSVSVVRCFERIGLDLRGKHFADVGSGAGFPGVPLKIYLKDIKLTLIESVSKKCSFLEYLKIKLNEDYRVLCTRAEKVEEKFDVVLARALGEFEEVKEILEKLSIGYVFVYKGSKLKEEWLKDYKLCELSLSFMPKSYILWKKVLEHHHHHH,not soluble
22,MIRLIGMEDGKTLEDLVKTKIATDTKHKPRKDAVLCSEMFLSASPEYFRPHDPSLAGEWNDERMVLFAKASITWLKTNYGDKCVRAELHLDEATPHIHAYIVPINDKTKLLSHKEMFGGDGRVGSIKLSKLQDSYAQALAPLGIERGVKGSKATHTKVKEYYQAVNSEPLTAVWSNQKLEHHHHHH,not soluble
23,MIRRLPMTDSRGMNSDKYGIPNIHIRTTPGPDMDKQTKQTNDSGFNSYSRKYHIPRLWYEPARGIYCSDSVSYSWFIQFLQGGIVHVLCRTSLLSISRILRKRGQKVYFGLRKRHEKLVGFASGHGLCLPGPFQHDPIAPVLLPRFPFVRQGRLVRSVLHTGLFE,not soluble
24,MISGHGDFPIALKESSGMIFGEENNLIAVPFFKGEGIQTLQEKYHQALKDIPEEHEVLFLVDIFGGTPYNAAASFIAEDQRMDMAAGVNLPILLEVLSLREHLALKDLLNNLKAMSQQSFQVCSEHLEKVKTANQD,not soluble
25,MISLIAALAVDRVIGMENAMPWNLPADLAWFKRNTLDKPVIMGRHTWESIGRPLPGRKNIILSSQPGTDDRVTWVKSVDEAIAACGDVPEIMVIGGGRVYEQFLPKAQKLYLTHIDAEVEGDTHFPDYEPDDWESVFSEFHDADAQNSHSYCFEILERR,soluble
26,MISLPAGSRIWLVAGITDMRNGFNGLASKVQNVLKDDPFSGHLFIFRGRRGDQIKVLWADSDGLCLFTKRLERGRFVWPVTRDGKVHLTPAQLSMLLEGINWKHPKRTERAGIRI,not soluble
